Holding throughout (experiment): crystal structure; crystals from 2.2 M DL-malic acid, pH 6.5, with or without 5 mM PPi (hanging drop); data at 100 K; oligomers read from the asymmetric unit and the crystal packing
The target of assay [1] is Acinetobacter baumannii pyrophosphatase K30R variant (Acinetobacter baumannii) (UniProt V5VHL7).
The target of assay [2] is Acinetobacter baumannii pyrophosphatase K149R variant (Acinetobacter baumannii) (UniProt V5VHL7).
Assay [3] concerns the target Acinetobacter baumannii pyrophosphatase, wild type (Acinetobacter baumannii) (UniProt V5VHL7).

Where “and” joins values, the source holds several entries; their conditions need not be identical. Equal values may be shown once.

“Acinetobacter baumannii pyrophosphatase K30R variant (from UniProt V5VHL7 5-174) (enzyme)”: in assay [1], the stoichiometry N (as a rule, the number of molecules, sites or subunits per partner or assembly) is 6 and 3.
For the substance “Acinetobacter baumannii pyrophosphatase K149R variant (from UniProt V5VHL7 5-174) (enzyme)”, the stoichiometry N in assay [2] is 6.
In turn, “Acinetobacter baumannii pyrophosphatase, wild type (from UniProt V5VHL7 5-174) (enzyme)” came in with a stoichiometry N in assay [3] of 6.

The values are drawn from article PMC6770254.
